experiment: soluble on expression in E. coli; label from the status in PepcDB or PDB records

Sequence	soluble on expression in E. coli
MIFRRSRPGTIGAVTLLCASLLAMPASSACTRFVYHGANDEVITARSMDWKVDVGTNLWAFPRGMQRSGQAGPNSIQWTSKHGSVIASGYDISTTDGMNEAGLVANVLWLAESSYPEYDGKTPGLTLAAWAQYVLDNFASVREAVDTLASEPFTVVTDNVPGEQRPATLHLSLSDASGDSAIIEYIDGKQVIHHNRAYQVMTNSPTFDKQLALNEYWKQIGGTVMLPGTNRASDRYARAYFYVNAIPKSEDPVEAIASVFSVIRNVSVPYGITTPDQPNISSTRWRTVADHKRKRYFFESALTPNIFWIDLGALDFSAESGKVMKLDLGPDQAHIYSGQANAHFEQAAPFKFLGL	not soluble
MIGSGSQRKIGIVIKALLDQAEELDIINKNKIRCTDIPRQGKAERRYLTIRGIDRLLAAAIPMNEVALMRNVLLFTGLRPREAKGLKVKDLDPMRGRLSIRRDVDDLGNPDETKTRNHRGVPIGGDLLFDLDDQAEGKQPHDWLLTDETGHV	not soluble
MIHRIKDEFVNVYIIDRGDHLVLIDTGIESTCEKILKKIEELGKPLKTVIITHYHLDHTGSLKCVKDGTGAKVVAHEEEVKAIEEKTGVRVDVPVKDGDVVEGLKVFHMPGHTRGSICLLDEESGALFVGDLMVERDGKLYEVPQQYSEDPMMNRERIKELLNIEFKAIYPAHGEPVLENAKEKVKELVESFSKGETN	soluble
MIIDGHTHVILPVEKHIKIMDEAGVDKTILFSTSIHPETAVNLRDVKKEMKKLNDVVNGKTNSMIDVRRNSIKELTNVIQAYPSRYVGFGNVPVGLSENDTNSYIEENIVNNKLVGIGELTPASGQIKSLKPIFKYSMDSGSLPIWIHAFNPLVLQDIKEIAELCKAFPKVPVILGHMGGSNWMTAVELAKEIQNLYLDTSAYFSTFVLKIVINELPLKCIFGTDMPFGDLQLSIEAIKKMSNDSYVANAVLGDNISRLLNIMAGDPLEHHHHHH	not soluble
MIIPALDLIDGTVVRLHQGDYGKQRDYGNDPLPRLQDYAAQGAEVLHLVDLTGAKDPAKRQIPLIKTLVAGVNVPVQVGGGVRSEEDVAALLEAGVARVVVGSTAVKSQDMVKGWFERFGADALVLALDVRIDEQGNKQVAVSGWQENSGVSLEQLVETYLPVGLKHVLCTDISRDGTLAGSNVSLYEEVCARYPQVAFQSSGGIGDIDDVAALRGTGVRGVIVGRALLEGKFTVKEAIACWQNA	soluble
MIIRDENYFTDKYELTRTHSEVLEAVKVVKPGKTLDLGCGNGRNSLYLAANGYDVDAWDKNAMSIANVERIKSIENLDNLHTRVVDLNNLTFDRQYDFILSTVVLMFLEAKTIPGLIANMQRCTKPGGYNLIVAAMDTADYPCTVGFPFAFKEGELRRYYEGWERVKYNEDVGELHRTDANGNRIKLRFATMLARKKLEHHHHHH	not soluble
MIITTTNGIEGKRVVEYKGIVCGEVISGVDFIKDFAAGLTNFFGGRSKSYEGELIEAREGAIREMKERAIQMGANAIIGVDIDYEVLGQGGNMLMVTASGTAVVIE	soluble
MIITVTAFKGGVGKTTSSIHLAAYLNNKAPTILIDGDLNRSALLWASHEKLDFPVVDEREGLKAARNYEHIVVDTPARPEIEEIRSLARGCDLMILPTSPDALSMGALQANIQTFKQLNIPNFRILMTIVPPKPSTAGTEAKEYLQSLGLPVFKRMITRYAAFPKAALEGCVVRDVKGDRYAGAGWNDYKTVGGEIYGLEHHHHHH	soluble
MIIYVSACRHAVCSETVLDVLGNVSEKMKKGIELARSVAHLELCQDKITFQRRYVAIEFDEDELLDGKSSILAVAVSIYFAIVGLRVPSDLMITGSLNLKGTVIPISGLDKTVKVIKLRITLSGSSSA	not soluble
MIKDVHRCFVIACIPGKKPYTLALSDFISATAACFKSGIPLKTLKESLENMKETYFRPLKVEEFELLRTWLTLVYKTLKEVLFPLTENKRGICDTDDSIYDEFVKSIVTAIREGYSMEKIRLEQVVTNTKTQPRTEFESALLSQSTRIVVQTVQIAKEFSSEQ	not soluble
MIKIELKNKDNQIITGRIDHEKPEAPFVAEGDTLAVLAIKQYLYQVGDKIVVTYTGATPYLMVQLDETLAPSLIYLKEKVWEYQIPLEESARKAFVDTAFHSARHQIMVRQAHTFEKDNYQNLSMNTHDQKEYSGAYPHAYANVETRDDAVFFAKNAIDSKFGNLSHGSYPFASWGINQKKEAQLTIDFGRPVETDWIRLLFRADYPHDSYWEEVTLAFSDGEERVVATTNTTCFQEIKFPMKTTQTLTLKCLRKALDSSPFPALTQIEVFGRNK	soluble
MIKINISQNFLVAKGHALFAEKGKDIVCAAISGIIFGGVAWFEPDKIEFTENKLVPSIALKLIDPTPNVAVAFSVITVQLKAIANSYPNHIVINEESYE	soluble
MIKKLDVVAAIIECDGKILLAQRPAHADQAGLWEFAGGKVEPGETQPQALIRELREELGIDATPGVYIASHQRDVSGRRIHLHAWHVPAFNGLIRALEHQALAWCTPEEALEYPLAPADIPLLQAFIALRDARLTDSC	not soluble
MIKLSPIDKYKQDLTRDDFLFDAAQENAVIHLQRLYDDLQSKPLAVSGFKKVLNRWKKVYKKQEQEPIKGLYFWGGVGRGKTYLVDTFFESLPFNNKMRVHFHRFMHRVHQELKSLSGQSDPLKIIAKKFADETQIICFDEFFVSDITDAMILGTLFEELFAHNVTLVATSNIIPDELYRNGLQRERFLPAIKLINKHTLIVNVDSGVDYRLRTLEQAEIFHYPLDAQADENLKHYFKQLSTDEGKSGQSIEIHNRPLKTVLVSDGVVYFDFSVLCESARSQGDYMEISQLYHTVLMANVKEMGPDSDDTTRRFIALVDEFYERNVKLIMSAELPLDDLYSGGRLAFEFKRCLSRLQEMQSHDYLASEHLPLEHHHHHH	not soluble
MIKRPIHLSHDFLAEVIDKEAITLDATMGNGNDTVFLAKSSKKVYAFDIQEEAIAKTKAKLTEQGISNAELILDGHENLEQYVHTPLRAAIFNLGYLPSADKTVITKPHTTIKAIKNVLDILEVGGRLSLMVYYGHDGGKSEKDAVIAFVEQLPQNNFATMLYQPLNQVNTPPFLIMVEKLQSYENEV	not soluble
MIKSITIRTSREFEIIDITKEVERVVRESNVKSGIVVVFTRHTTTALTINENESGLKRDIEEILSKLVPKGMNYFHDRIDNNAHSHLRGILLGPSLTIPVEDGRLLLGTWQSILFVELDGPRTREVYVKVCECLEHHHHHH	soluble
MILLIGATGNIGLPIVKSLQKKGAEVRLLVHNEKSSAKIQALGQMEIFIGDFRNDSDLRESMKGCSSVFHVVPPFTKDEAEIGYRVIENARHAGVEHIVFNSVLHPQLRKMEHHAQKLLVEEAVIESGLAFNIIQPAMLMQNLLMVWRTIRENGIYPVISSPDKKMSLIDSEDIGEAVANILTDPSLRNATFELAGSDLLTYKEMALIISEELNQPVKVVPVDDKGREELARKQGMSSYAIHAFLKMAKHYDEHGFSGSNPLVLTSILKRPPNSYRDFIRRLIAEDGGI	not soluble
MINFHPNVKRAISQAAQKYGLPESFLERVAMIESKGNPNARNSKSSAGGLYQFLDSTAKQYQLNNKFDPFQATDAMARLTKDNTRYLATALGREPSQAELYLAHQQGPAGAVKLIKNPNVPASQLLGRQAVVLNGGNVEATAGDFMNHIYGLYNKTGEASNGRARQSWGNGQSAANEVVPLRGVERFQKAIQGAQARKPLMAYDTPLHENTRFQGQGIDAGALKKSVMSLVDLMRRNKDAQNQQIEMAHQQMMQQPMMTGFSQSSAHPVDLTLLIDPSRRNPVRSYGQQKKQQLQEELLRRTGAYHV	not soluble
MIPEQRREQILRQLRKHQVLSVHQLMEMFDCSHMTVRRDIALLEQEGRAHSVTGGVRIASQLHSEPSHQSKAVVELPQKQAMAKLAASLLHADMTVYLDAGTSTLEIVHYIKALSGMTVVTNDFGVAQALMDAPQVTVIHTGGQLDHSNHSCVGGLAVATLRQVVTDVAFISTSSWDLRRGITTPSALKVEVKQVAMQSATQVVLVASSSKYGTFSMYKIAGLEQFDIIISDAALAPAAADGIRKHGVELLLPAQSLEHHHHHH	not soluble
MIPVFNITSNRGRLLQQISVGDIWGVGRQWANKLISRGIHTAYDLAMTNPHLLKKCFNAVLMRTAMELQGIACGGLEVLEHHHHHH	not soluble
MIQFNQVSKSYEDGTKAVDSLHLEIKKGEFFVLIGPSGCGKTTTMKMINRLIETTEGSILIDGKDIQQYNINELRWDIGYVLQQIALFPHMTIAENIAVVPEMRKWSKEKIKARVDELLQMVGLDPDVYRNRMPDELSGGQKQRIGVVRALAANPKIVLMDEPFSALDPLSREQLQKDIVQLQKKIQKTIVFVTHDMQEALSLGDRICIMKEGKVVQLDTPEGIIHNPKNEFVEEFIGNRGRPWYEGKSIEDVLPLDESIRIEGEALSLHSSLQEALVRLRADEVVPVEEKGRYVGALTSRHIVNYIVEQMKERG	not soluble
MIQFSINRTLFIHALNTTKRAISTKNAIPILSSIKIEVTSTGVTLTGSNGQISIENTIPVSNENAGLLITSPGAILLEASFFINIISSLPDISINVKEIEQHQVVLTSGKSEITLKGKDVDQYPRLQEVSTENPLILKTKLLKSIIAETAFAASLQESRPILTGVHIVLSNHKDFKAVATDSHRMSQRLITLDNTSADFMVVLPSKSLREFSAVFTDDIETVEVFFSPSQILFRSEHISFYTRLLEGNYPDTDRLLMTEFETEVVFNTQSLRHAMERAFLISNATQNGTVKLEITQNHISAHVNSPEVGKVNEDLDIVSQSGSDLTISFNPTYLIESLKAIKSETVKIHFLSPVRPFTLTPGDEEESFIQLITPVRTN	soluble
MIRAFLVVALASVAVFSAPIPEVPQNFDDIPAEYKGLIPAEVAEHLKAITAEEKAALKELAQNHKEYKTEEEFKAALKEKSPSLYEKAGKLEALLTAKFEKLDATAQALVKKIIAKGRELHQQYLAGDKPTLDSLKELAKGYIAEYKALSDDAKATITAEFPILTGFFQNEKIQAIVGQYVN	not soluble
MIREAQRSELPAILELWLESTTWGHPFIKANYWRDCIPLVRDAYLANAQNWVWEEDGKLLGFVSIMEGRFLAAMFVAPKAVRRGIGKALMQYVQQRYPHLMLEVYQKNQPAIDFYRAQGFHIVDCAWQDETQLPTWIMSWPVVQTL	not soluble
MIRELVTTAAITGAAIGGAPVAGADPQRYDGDVPGMNYDASLGAPCSSWERFIFGRGPSGQAEACHFPPPNQFPPAETGYWVISYPLYGVQQVGAPCPKPQAAAQSPDGLPMLCLGARGWQPGWFTGAGFFPPEP	soluble
MISAQSLTRPQLRRQLRKARRVLTRSQQRAAARGLYQQLAQHPLFRRARHVSLYLPMDGEIDPRLLLREAQRRGKATYLPVLNAWPRTRMVFQRVRPGEKFIPNRFRIPEPRINRTKQRPVWALDLVLMPLVGFDDEGGRLGMGGGFYDRSLAYLARRKTWRKPALLGLAHECQKVDRLAQAIWDVPLQGTVSDKQWYLTQRLLEHHHHHH	not soluble
MISILRRGLLVLLAAFPLLALAVQTPHEVVQSTTNELLGDLKANKEQYKSNPNAFYDSLNRILGPVVDADGISRSIMTVKYSRKATPEQMQRFQENFKRSLMQFYGNALLEYNNQGITVDPAKADDGKRASVGMKVTGNNGAVYPVQYTLENIGGEWKVRNVIVNGINIGKLFRDQFADAMQRNGNDLDKTIDGWAGEVAKAKQAADNSPEKSVKLEHHHHHH	soluble
